Test results from US20120034160A1 (AbbVie / Abbott, published 2012).

T1: Recombinant Human IL-17 (human, UniProt Q16552 20-155, limits assumed)
T1 construct: bought reagent
T1 sequence (looked up): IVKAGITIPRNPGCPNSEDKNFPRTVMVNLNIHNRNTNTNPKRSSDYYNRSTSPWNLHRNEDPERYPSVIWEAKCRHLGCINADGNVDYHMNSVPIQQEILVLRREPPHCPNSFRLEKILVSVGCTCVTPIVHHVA

T2: Recombinant Human IL-17 (human, UniProt Q16552 20-155, limits assumed)
T2 construct: Bought reagent
T2 sequence (looked up): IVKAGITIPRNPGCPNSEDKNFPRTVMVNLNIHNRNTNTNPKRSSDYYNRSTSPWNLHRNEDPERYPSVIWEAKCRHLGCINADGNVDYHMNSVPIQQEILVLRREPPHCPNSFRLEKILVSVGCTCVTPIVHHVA


Tests used:
[1] = molecular target: T1, Recombinant Human IL-17; test: Biacore SPR; C-terminal VD
Outline: (§1)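 Captured antibody or DVD-Ig bound antigen (10−200 nM) in HBS-EP at 25° C. KD = koff/kon from a 1:1 global fit.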

[2] = molecular target: T3, Recombinant Human IL-1β (human, UniProt P01584 117-269); test: Biacore SPR; N-terminal VD
T3 construct: bought reagent; also called IL-1B
Outline: as §1

[3] = molecular target: T2, Recombinant Human IL-17; test: Biacore SPR; C-terminal VD
Outline: as §1

[4] = molecular target: T4, Recombinant Human IL-1β (human, UniProt P01584 117-269); test: Biacore SPR; N-terminal VD
T4 construct: Bought reagent; also called IL-1B
Outline: as §1

[5] = molecular target: T4, Recombinant Human IL-1β; test: cell-based or functional assay
[6] = molecular target: T2, Recombinant Human IL-17; test: cell-based or functional assay

| Binder | Kd [1] [pM] | koff [1] [s⁻¹] | kon [1] [M⁻¹ s⁻¹] | Kd [2] [nM] | koff [2] [s⁻¹] | kon [2] [M⁻¹ s⁻¹] | Kd [3] [nM] | koff [3] [s⁻¹] | kon [3] [M⁻¹ s⁻¹] | Kd [4] [nM] | koff [4] [s⁻¹] | kon [4] [M⁻¹ s⁻¹] | N-Terminal VD IL-1β Neutralization Assay EC50 [5] [nM] | C-terminal VD IL-17 Neutralization Assay EC50 [6] [nM] |
| --- | --- | --- | --- | --- | --- | --- | --- | --- | --- | --- | --- | --- | --- | --- |
| DVD1629 (bispecific antibody, human IgG1, kappa, V1 wt hIgG1, V2 kappa; also called DVD1629H; DVD1629L) heavy: not shown light: DIQMTQSPSSLSASVGDRVTITCRASGNIHNYLTWYQQTPGKAPKLLIYNAKTLADGVPSRFSGSGSGTDYTFTISSLQPEDIATYYCQHFWSIPYTFGQGTKLQITRTVAAPEIVLTQSPDFQSVTPKEKVTITCRASQDIGSELHWYQQKPDQPPKLLIKYASHSTSGVPSRFSGSGSGTDFTLTINGLEAEDAGTYYCHQTDSLPYTFGPGTKVDIKRTVAAPSVFIFPPSDEQLKSGTASVVCLLNNFYPREAKVQWKVDNALQSGNSQESVTEQDSKDSTYSLSSTLTLSKADYEKHKVYACEVTHQGLSSPVTKSFNRGEC | ≤ 0.11 | < 1e-06 | 1.4e+06 | 0.039 | 7.3e-05 | 1.9e+06 |  |  |  |  |  |  |  |  |
| DVD1605 (bispecific antibody, human IgG1, kappa, DVD-Ig, outer AB271, inner AB274, linker set 2; V1 wt hIgG1, V2 kappa; also called DVD1605H; DVD1605L) heavy: not shown light: DTVVTQSPAFLSVTPGEKVTITCITSTDIDVDMNWYQQKPDQPPKLLISQGNTLRPGVPSRFSSSGSGTDFTFTISSLEAEDAATYYCLQSDNLPLTFGQGTKLEIKRTVAAPSVFIFPPEIVLTQSPDFQSVTPKEKVTITCRASQDIGSELHWYQQKPDQPPKLLIKYASHSTSGVPSRFSGSGSGTDFTLTINGLEAEDAGTYYCHQTDSLPYTFGPGTKVDIKRTVAAPSVFIFPPSDEQLKSGTASVVCLLNNFYPREAKVQWKVDNALQSGNSQESVTEQDSKDSTYSLSSTLTLSKADYEKHKVYACEVTHQGLSSPVTKSFNRGEC | ≤ 0.068 | < 1e-06 | 410000 | 0.059 | 0.0005 | 8.6e+06 |  |  |  |  |  |  |  |  |
| DVD1615 (bispecific antibody, human IgG1, kappa, DVD-Ig, outer AB271, inner AB275, linker set 2; V1 wt hIgG1, V2 kappa; also called DVD1615H; DVD1615L) heavy: not shown light: DTVVTQSPAFLSVTPGEKVTITCITSTDIDVDMNWYQQKPDQPPKLLISQGNTLRPGVPSRFSSSGSGTDFTFTISSLEAEDAATYYCLQSDNLPLTFGQGTKLEIKRTVAAPSVFIFPPEIVLTQSPDFQSVTPKEKVTITCRASQNIGSELHWYQQKPDQSPKLLIKYASHSISGVPSRFSGSGSGTDFTLTINGLEAEDAATYYCHQSDTLPHTFGQGTKVDIKRTVAAPSVFIFPPSDEQLKSGTASVVCLLNNFYPREAKVQWKVDNALQSGNSQESVTEQDSKDSTYSLSSTLTLSKADYEKHKVYACEVTHQGLSSPVTKSFNRGEC | 150 | 6e-05 | 390000 | 0.055 | 0.00055 | 9.9e+06 |  |  |  |  |  |  |  |  |

Other lines, results leading:

| Kd [1] [pM] | koff [1] [s⁻¹] | kon [1] [M⁻¹ s⁻¹] | Kd [2] [nM] | koff [2] [s⁻¹] | kon [2] [M⁻¹ s⁻¹] | Kd [3] [nM] | koff [3] [s⁻¹] | kon [3] [M⁻¹ s⁻¹] | Kd [4] [nM] | koff [4] [s⁻¹] | kon [4] [M⁻¹ s⁻¹] | N-Terminal VD IL-1β Neutralization Assay EC50 [5] [nM] | C-terminal VD IL-17 Neutralization Assay EC50 [6] [nM] | Binder |
| --- | --- | --- | --- | --- | --- | --- | --- | --- | --- | --- | --- | --- | --- | --- |
| ≤ 0.14 | < 1e-06 | 250000 | 0.017 | 2.2e-05 | 1.3e+06 |  |  |  |  |  |  |  |  | DVD1631 (bispecific antibody, human IgG1, kappa, V1 wt hIgG1, V2 kappa; also called DVD1631H; DVD1631L) heavy: not shown light: DIQMTQSPSSLSASVGDRVTITCRASGNIHNYLTWYQQTPGKAPKLLIYNAKTLADGVPSRFSGSGSGTDYTFTISSLQPEDIATYYCQHFWSIPYTFGQGTKLQITRTVAAPEIVLTQSPDFQSVTPKEKVTITCRASQDIGSELHWYQQKPDQPPKLLIKYASHSTSGVPSRFSGSGSGTDFTLTINGLEAEDAGTYYCHQTDSLPYTFGPGTKVDIKRTVAAPSVFIFPPSDEQLKSGTASVVCLLNNFYPREAKVQWKVDNALQSGNSQESVTEQDSKDSTYSLSSTLTLSKADYEKHKVYACEVTHQGLSSPVTKSFNRGEC |
|  |  |  |  |  |  | < 0.0063 | < 1e-06 | 160000 | 0.063 | 0.00057 | 9e+06 | 0.371 | 0.146 | DVD1633 (bispecific antibody, human IgG1, kappa, DVD-Ig: outer AB270, inner AB274; V1/V2 vectors: wild type hIgG1, kappa) heavy: not shown light: DTQVTQSPSSLSASVGDRVTITCITSTDIDVDMNWYQQKPGKPPKLLISQGNTLRPGVPSRFSSSGSGTDFTFTISSLQPEDFATYYCLQSDNLPLTFGQGTKLEIKRTVAAPEIVLTQSPDFQSVTPKEKVTITCRASQDIGSELHWYQQKPDQPPKLLIKYASHSTSGVPSRFSGSGSGTDFTLTINGLEAEDAGTYYCHQTDSLPYTFGPGTKVDIKRTVAAPSVFIFPPSDEQLKSGTASVVCLLNNFYPREAKVQWKVDNALQSGNSQESVTEQDSKDSTYSLSSTLTLSKADYEKHKVYACEVTHQGLSSPVTKSFNRGEC |
|  |  |  |  |  |  | 0.14 | 4.9e-05 | 360000 | 0.06 | 0.00045 | 7.6e+06 | 0.24 | 0.127 | DVD1635 (bispecific antibody, human IgG1, kappa, DVD-Ig: outer AB271, inner AB274; V1/V2 vectors: wild type hIgG1, kappa) heavy: not shown light: DTVVTQSPAFLSVTPGEKVTITCITSTDIDVDMNWYQQKPDQPPKLLISQGNTLRPGVPSRFSSSGSGTDFTFTISSLEAEDAATYYCLQSDNLPLTFGQGTKLEIKRTVAAPEIVLTQSPDFQSVTPKEKVTITCRASQDIGSELHWYQQKPDQPPKLLIKYASHSTSGVPSRFSGSGSGTDFTLTINGLEAEDAGTYYCHQTDSLPYTFGPGTKVDIKRTVAAPSVFIFPPSDEQLKSGTASVVCLLNNFYPREAKVQWKVDNALQSGNSQESVTEQDSKDSTYSLSSTLTLSKADYEKHKVYACEVTHQGLSSPVTKSFNRGEC |
